{
  "source": "paper PMC3338121",
  "biological_target": "Recombinant soluble empty (peptide free) HLA-DR1 (human)",
  "assay": "competitive peptide binding assay",
  "data": [
    {"substance": "P2 S peptide (HA_(306–319) substituted at P2), unlabeled", "values": [
      {"measurement": "Kd", "result": 97.2, "unit": "nM"}
    ]},
    {"substance": "P2,3,7,10 SDPG peptide (HA_(306–319) substituted at P2, P3, P7 and P10), unlabeled", "values": [
      {"measurement": "Kd", "result": 313000, "unit": "nM"}
    ]},
    {"substance": "P2,7,10 SPG peptide (HA_(306–319) substituted at P2, P7 and P10), unlabeled", "values": [
      {"measurement": "Kd", "result": 605, "unit": "nM"}
    ]},
    {"substance": "P2,10 SG peptide (HA_(306–319) substituted at P2 and P10), unlabeled", "values": [
      {"measurement": "Kd", "result": 373, "unit": "nM"}
    ]}
  ]
}
